In patent US20040014148A1 (RIGEL PHARMACEUTICALS, published 2004):
No end group written: not given here.

Tests used:
[1] = biological target: T1, human chloride intracellular channel 1 (human, UniProt O00299 1-241); assay: cell-based or functional assay
[2] = biological target: T1, human chloride intracellular channel 1; assay: cell-based or functional assay; remark: listed apart in the source

| Binder | Reporter Ratio (A5T4 reporter line, IL-4 induced germline epsilon transcription) [1] | endogenous epsilon inhibition ratio (TAQMAN quantitative PCR, +IL-4/+Dox to +IL-4/-Dox) [2] | reporter ratio (original library clone screen, A5T4 cells) [2] |
| --- | --- | --- | --- |
| LYTSILLHGATTASMTKPLA (also: expressed as BFP fusion (BFP, alpha-helical linker, peptide) in GAL4 bait vector, fusion sequences not given here) [peptide DL03wt] | 1.5 | 2.11 | 1.32 |
| LYTSAALHGATTASMTKPLA [peptide DL03IL] | 1.16 | – | – |
| LYTSILLHGATTASMTAALA [peptide DL03KP] | 1.77 | – | – |
| LYTSILLHGATTASMTKPAR [peptide DL03LA] | 1.22 | – | – |
